# Assay results reported in patent US20240101686A1.
# Read-outs that look alike come from different tables or passages of the source.
# B1: 30D8-hIgG1 (antibody, V domains shown)
# VH: EVQLVESGGGLVKPGGSLRLSCEASGFTFSDAWMSWVRQAPGKGLEWVGRIKSKTDGGTTDYVVPLNGRFIISRDDSRNTLYLQLNNLKTEDTAVYYCTTVPGSYGYWGQGTLVTVSS
# VL: DIVMTQSPLSLPVTPGEPASISCRSSQSLLHNKRNNYLDWFLQKPGQSPQLLIYLASNRASGVPDRFSGGGSGTDFTLKISRVEAEDVGVYYCMQAQQTPITFGQGTRLEIK
# Assays:
# Conditions in all cases: remark: other sources report otherwise
# [1] = target: human EGFR endogenously expressed on A431 cells (human), P00533
# [2] = target: human EGFR on cells (human), P00533
# [3] = target: human EGFR on cells (human), P00533; remark: listed apart in the source
# [4] = target: human EGFR on cells (human), P00533; remark: listed apart in the source
binder,measurement,setting,value
B1,Max MFI,[1],712
same,Max MFI,[2],143
same,Max MFI,[3],88
same,Average fluorescence intensity,[4],528
